Test results published in PMC7118224, “Molecular and Functional Analysis of Pore-Forming Toxin Monalysin From Entomopathogenic Bacterium Pseudomonas entomophila” (Frontiers in Immunology, 2020).

Columns and labels:
[1] = molecular target: endogenous pro-Monalysin (Pseudomonas entomophila (endogenous in strain L48)) (UniProt Q1I8U1); assay: high-speed atomic force microscopy; on mica surface in PBS buffer, room temperature (24-26°C)
[2] = molecular target: endogenous pro-Monalysin (Pseudomonas entomophila (endogenous in strain L48)) (UniProt Q1I8U1); assay: high-speed atomic force microscopy; on mica surface in low salt buffer (30 mM NaCl, 10 mM sodium phosphate, pH 7.0), strongly immobilised
[3] = molecular target: the molecule itself; assay: as above
[4] = molecular target: the molecule itself; assay: MALDI-TOF MS; active-Monalysin mixed with sinapic acid matrix; molecular weight of the multimer

For “endogenous pro-Monalysin (from UniProt Q1I8U1 1-271) (natural protein)”, the stoichiometry N [1] was 16 and the stoichiometry N [2] was 8.

B1: active-Monalysin (trypsin-treated endogenous pro-Monalysin) (natural protein, UniProt Q1I8U1 34-271, looked up)
chain: NLSGRFDQYPTKKGDFAIDGYLLDYSSPKQGCWVDGITVYGDIYIGKQNWGTYTRPVFAYLQYVETISIPQNVTTTLSYQLTKGHTRSFETSVNAKYSVGANIDIVNVGSEISTGFTRSESWSTTQSFTDTTEMKGPGTFVIYQVVLVYAHNATSAGRQNANAFAYSKTQAVGSRVDLYYLSAITQRKRVIVPSSNAVTPLDWDTVQRNVLMENYNPGSNSGHFSFDWSAYNDPHRRY
notes: Monalysin of Pseudomonas entomophila, product of trypsin cleavage of the pro-form; monomer of 27 kDa on SDS-PAGE; also called active-form; cleaved mature form; source: purified pro-Monalysin from P. entomophila L48, treated with trypsin (0.2 mg/mL, 25°C, 10 min)
With B1 the “stoichiometry N” value [3] was 8 and the “stoichiometry N” value [4] was ~8.
